The text below walks through data of a protein production outcome set (Wang et al. 2014).

The series in a line: label from the status in PepcDB records.
On to “MARFALVLHAHLPYVRAHGMWPFGEETLYEAMAETYLPLIRVLERLRAEGVEAPFTLGITPILAEQLADARIKEGFWAYAKDRLERAQGDYQRYRGTALEASARHQVAFWELTLDHFQRLSGDLVAAFRKAEEGGQVELITSNATHGYSPLLGYDEALWAQIKTGVSTYRRHFAKDPTGFWLPEMAYRPKGPWKPPVEGPPEGVRPGVDELLMRAGIRYTFVDAHLVQGGEPLSPYGEAALGPVESQEATYHVHELESGLRVLARNPETTLQVWSADYGYPGEGLYREFHRKDPLSGLHHWRVTHRKADLAEKAPYDPEAAFAKTEEHARHFVGLLERLAGRHPEGVILSPYDAELFGHWWYEGVAWLEAVLRLLAQNPKVRPVTAREAVQGPAVRTALPEGSWGRGGDHRVWLNEKTLDYWEKVYRAEGAMREAARRGVLPEGVLRQAMRELLLLEASDWPFLMETGQAEAYARERYEEHARAFFHLLKGASPEELRALEERDNPFPEADPRLYLFREA”, for which the protein production result is listed as “not failed”. With “SAVDCPQHCDSSECKSSPRCERTVLDDCGCCRVCAAGRGETCYRTVSGMDGMKCGPGLRCQPSNGEDPFGEEFGICKDC” the entry was “failed”; with “MTLMCSIAGIYLAKLPYANIIGALVLALLLGILMQLAPEKMRKEASSGMSFISNKFLRLGIILLGFRLDLEKLAAAGVKTILVAALAVAGTITLTYWLSRKFGAEDELAFLSACGCGVCGAAAVMGVSPQITAASEERKRENEVLAVAVVCVMGTVFTLLEIGLKPVLGLTDSQFGIVAGGSLHEIAHAVASGGAFGNISLDSALIMKLSRVILLAPVALIIGYLYQRRTAKVSTIDSTTKTGKLPIPWFLGGFILTSVLGTYLPFSTSLLDALVQVAYIFLGMAMAALGISVNFKVIFKRGGAVFGAAAISSTCLLIFMIIMSKLFF”, “failed”; with “MLTLDLSAVRCQNGVPFLRYYWNLPVNQSHSGPLANNHAQLGLLFISVAVLFWGMLPIALKLSGSFIDPVTLTWFRFLVALIVSILVQWSAGSLKQFAALDAKVWLRLILAGLFLMLNYVSFVYSLDYLAPGAAQLNFQTSPFFLAFGGVLFFKERLNAIQLSCFASLALGMLMFFHPFLDFSATDNHEIWLGVMIVQFSALSWTTYALLQKSLLNRLSPANVLLVIYALGIFAMAPFSDFSQFAQMNSFDWQVALFCAANTLIAYGCFGQSMKYWPTAQVSAMLALTPVFSFSATALVVSIGWWPEVFRADELDALSLFGIGVIIVSVMVVQLLPLYRQRRARRLQPI”, “failed”. With “MYGGIYVNNGYSPMSSNQQNVSVEHDIIMRGRRVIDITGVKQVESFDSEEFLLETVMGFLTIRGQNLQMKNLDVEKGVVSIKGKVHEMLYIDENQGEKTKGFFSKLFKLEHHHHHH” the entry was “not failed”; with “MDSMILGRYIPGDSIVHRLDPRSKLLAMMLLILIVFWANNPLTNLILFIATGIFIALSGVSLSFFIQGLKSMFFLIAFTTIFQLFFISNGNVLFEFSFVRITDYALQQAGIIFCRFVLIIFFSTLLTLTTMPLSLASAVEALLAPLKRVKVPVHEIGLMLSMSLRFVPTLMDDTTRIMNAQKARGVDFGEGSIVQKVKAMIPILIPLFATSLKRADSLAIAMEARGYQGGKGRSQYRQLKWTLKDTLTILVILVLGCCLFFLKS”, “failed”; with “MTTPNRFVAGAIDLGEVKARAEARSQAQRAGQSSVTEVEPTVTITMDNVEEQLIKRSMQVPVVVLIGTPRSPDSEQLRAD”, “failed”.

Regarding “MKKLMITQEAGVATVLIKNPPVNILTIDLINELNAFILSLKDDRETKVVVFKSFHEAFFIAHLDLNVINGTSGGQAASIEFNHMIANIKAMKQLSIAVVDGVARGGGNEFVMACDLAYGTENSAFAQPELYINIPTGGQGAVQFARRLGKGKALQALLTGADFTAQQAETLNIITQFVLKAELDVFLAQLLSVIVGWEIRDIVMYKEIIAASIKDEAVGTELELRYFLERAREEKTQTIIAAFLKHGGQTEREAKDMQGIFVDTAAELSK”, the protein production entry is listed as “failed”. With “MSLAPWRGAIAHALHRNRSLVYARYLQLATVQPNGRPANRTLVFRGFLEDTNQLRFITDTRSAKADQIQQQPWAEICWYFPNTREQFRMAGDLTLISSDDSHQDLQPARIAMWQELSDAARLQFGWPYPGKPRIKESGAFEPSPPDPIEPVPNFCLLLLDPVQVDHLELRGEPQNRWLYHRNDQQEWSSEAINP” the entry was “not failed”. With “MNLSQQNQHSNPITEAAKATFPYSVPMIAGFLFLGIAYGIYMKALGFGFLYPTLMALLIYAGSVEFIAAGALIAPFSPISVLLITLMISARQIFYGISMLEKYGIHIGKKRWYLITTLVDESFSLNYMAKIPPHLDKGWYMFFVSLYLHIYWVLGAAMGNLFGTVLPFNLKGVEFSMTALFLVIFAENWLKGKSHESSLLGLGIALVFLLIIGKEYFLIPTLIGIWLILTMRITKLETKLESLK” the entry was “failed”; with “ADVSSSDLATLRRLTNEFQAELATLGTRVDDLEARTSELENQQFSTTTKLNGEAIFSISGATGGEPEGNDAQITFNNRLRLNLTTSFTGKDALITGLQAYNFSAGKSITGTGNVAETLFPNDASILGDSMTNLAWEPQFAGLNPQNLQPSCGNNSLCLYKLLYVRPITDKLTAFIGPKAEVTDAFPAILPFASEGQGALSRFATLNPVLRMSGGTSGTGLASAAGFIYKPNDVIDWRALYGSVNAAIPGNEGFPGTPLGAGLFNGSFIAATQLTLHPNDKLDLGLNYAYSYHQINIAGTGLTGAETRILGDLPLTTPVRFNSFGATVNWRVSPKVNLTGYGAYIMTDQANSGSAYTNLSSWMAGLYFPDAFAKGNAAGILFGQPLYRVDAGNGASLSPANIGDRQTPYQLEAFYRHQINDHISITPGAFVIFNPEGDAQNETTSVFALRTTYTF”, “failed”. In the case of “MTKLINFLAEYQREIESQPIELDLALFSRLVGLPFEAVLTQPSAPLVEACMKLIEFVDNENYLILPADRQMLEQIAFSNRYQSVQICDVVQGPHRFLAATFVLSKTTKVIAFRGPNGTLLSWKADLHFSFSSINKLKIQAHQYLLQALQHDNQNIYCVGFSQGASIAALACMDISDTHRHRIQTIIFDSPGLPDDHYQSPIPIIELVPPLSLFALVGEHPFHQITISSSSTGIWQHDLYSWEADSHGEFAKNIGITNPTTIQHQFIQLLPSNITDENIDRTLNVAISIFSQLNFHSTSELIKHWNQFNALIQTEITAENIVVKTAILRLQKLIFKNAALNLQSIPLN”, the protein production result is listed as “failed”. With “MAEKNAYTVAQLADEYFERMIAGRWKHPNIVRSRIEKDIKPAIGSLKVEDVKPRHIDDVLKAVMKRGAPSIANDTLRWLKRMFNYAIKRHIIEYNPAAAFDPGDAGGKEKSLEHHHHHH” the entry was “not failed”.

Take “MDEKEKNLNENSENESTPKREVEDTLHTPESAQPVQETPIVEGVTPEGEKFAGATEDAAEASSTNAFFEEASNKESEPARPAPGPRRAGTTGGGAVPPNRVNNGGSGNGNGEPPKRGKHFIGYFLTALIGVIIGGLIIFFVAWDNGDNADTTSNSNNKATKVEKVSVDTTSDVTKAVDKVQDAVVSVLNYQSSSSLDGTTTSEQEASSGSGVIYKKANGKAYIVTNNHVVADANKLEVTFTNGKKSEAKLLGTDEWNDLAVLEIDDKNVTTVAAFGDSDSLKLGEPAIAIGSPLGTEFSGSVTQGIISGLNRAVPVDTNGDGTEDWEADVIQTDAAINPGNSGGALINIEGQVIGINSMKISMENVEGISFAIPSNTVEPIIEQLETKGEVERPSLGVSLRDVDTIPETQQKNILKLPDSVDYGAMVQQVVSGSAADKAGLKQYDVIVELNGQKVTNSMTLRKILYGNDVKIGDKVKVKYYRDGKEKSTDIKLEAAKTTT”: the protein production result is on record as “failed”. Regarding “TSTMGNLQTAINDKSGTLASQNFLDADEQKRNAYNQAVSAAETILNKQTGPNTAKTAVEQALNNVNNAKHALNGTQNLNNAKQAAITAINGASDLNQKQKDALKAQANGAQRVSNAQDVQHNATELNTA”, the protein production result is reported as “not failed”. Under “MQFGIFTVGDVTPDPTTGRTPTEHERIKAMTTIAKHAEDVGLDVFATGEHHNPPFVPSSPTTMLGYLAAQTEKIILSTSTTLITTNDPVKIAEDYAMLQHLADGRVDLMMGRGNTAPVYPWFGQDIRQGIPLALEHYRLLRRLWDEDVVDWQGQFRTPLQGFTSTPRPLDGIAPFVWHGSIRSPEIAEIAAFHGDGFFANNIFWPKEHYIALINLYRERYEHYGHGRADQAIVGLGGQVFMRRNAKDAVDEFRPYFDNAPVYGHGPSLEDFTEQTPLTVGTPEQVIEKTLTFADFFGDYQRQLFLVDHAGLPLKTVLEQLDLLGGEVVPVLRKEFAARR” stands “failed”.
